Measured values: patent US20060127400A1, “Activation of regulatory T cells by alpha-melanocyte stimulating hormone” (THE SCHEPENS EYE RESEARCH INSTITUTE, INC., priority 1999, published 2006)

How the values were obtained:
primed Th1 cells = assay: in vitro regulatory T cell activity assay (IFN-γ of freshly activated primed Th1 cells in coculture); type: cell-based, mouse (BALB/c); settings: for induction of regulatory T cell activity (suppression of IFN-γ of other Th1 cells), factor individually: α-MSH 30 pg/ml or TGF-β 5.0 ng/ml; for induction of regulatory T cell activity, TGF-β added 4 hours after TCR-stimulation in the presence of α-MSH: α-MSH 30 pg/ml, TGF-β 5.0 ng/ml
Description: (§1) Assay For In Vitro Regulatory T Cell Activity. The α-MSH-treated TCR-stimulated T cells, as described above, were cultured for 48 hours. The plate was spun down at 250×g for 10 minutes and supernatant discarded. Freshly isolated, enriched in vivo primed Th1 cells (4×10^6 cells/ml) mixed with 2C11 (1 μg/ml) were added (200 μl) to the wells of the α-MSH pre-treated, TCR-stimulated T cells and incubated for 48 hours. The culture supernatant was assayed for IFN-γ by sandwich ELISA. For long term cultures, primed T cells were TCR-stimulated in the presence of α-MSH for 48 hours. The plate was centrifuged and supernatant was exchanged for 200 μl of 2C11 (1 μg/ml) in fresh media, no x-MSH. The cultures were incubated for 72 hours and the conditioned media was again exchanged for fresh media and 2C11 antibody. The cultures were incubated for an additional 48 hours, centrifuged, supernatant discarded, and added were fresh in vivo primed Th1 cells and 2C11 antibody. Soluble TGF-β receptor II (sTGF-βRII, R&D Systems) was added to some of the cultures. These cultures were incubated for 48 hours and the culture supernatant was assayed for IFN-γ by sandwich ELISA.
Primed T cells (4×10^5 cells) were enriched and activated with anti-CD3 in the presence (α-MSH+anti-CD3) or absence (+anti-CD3) of α-MSH (30 pg/ml). After 48 hours of incubation the cells were mixed with freshly enriched primed Th1 cells (4×10^5 cells) and anti-CD3 antibody and cultured for 48 hours. The culture supernatant was assayed for IFN-γ by sandwich ELISA. Results are presented as IFN-γ pg/ml±SEM of eight independent experiments.
In addition, T cells initial TCR-stimulated in the presence of α-MSH and subsequently restimulated twice (Day 2 and Day 5) with anti-TCR antibody in the absence of α-MSH, still suppressed IFN-γ production by freshly activated primed Th1 cells (FIG. 6). […] Primed T cells (4×10^5 cells) were enriched and activated with anti-CD3 antibody in the presence of 30 pg/ml α-MSH (α-MSH+anti-CD3) or absence of α-MSH (+anti-CD3). After 48 hours of incubation the cells were centrifuged and resuspended in fresh media with anti-CD3 antibodies and incubated for 72 hours (day 5). The cells were again washed and re-stimulated with anti-CD3 and incubated for an additional 48 hours (day 7). After the final incubation the treated T cells (4×10^5 cells) were mixed with freshly enriched primed Th1 cells (4×10^5 cells) and anti-CD3 antibody and cultured for 48 hours. The culture supernatant was assayed for IFN-γ by sandwich ELISA. Results are presented as IFN-γ pg/ml±SEM of eight independent experiments. […] Therefore, α-MSH mediates induction of functionally active, regulatory Th3 cells.
TGF-β and α-MSH induce regulatory T cell activity. Primed T cells were TCR-stimulated in the presence or absence of 30 pg/ml α-MSH with TGF-β1 or TGF-β2 (5.0 ng/ml) added 4 hours after TCR-stimulation. The treated T cells (Regulatory T cells) were added to cultures of freshly activated primed T cells. Culture supernatants were assayed for IFN-γ 48 hours after addition of treated T cells. Data are presented as percent suppression±SEM of IFN-γ produced by freshly activated T cells with no added regulatory cells, from eight independent experiments.

primed T cells [1] = assay: total TGF-β production by TCR-stimulated primed T cells, Mv1Lu (CCL-64) bioassay; type: cell-based, mouse (BALB/c); settings: α-MSH 30 pg/ml, TGF-β 5.0 ng/ml, 48 hours
Description: TGF-β bioassay. To measure total TGF-β, 100 μl of conditioned media was pretreated according to standard procedures (24) with 10 μl 1N HCL to lower the media pH to 2 and incubated for 1 hour at 4° C. The acid was neutralized with 20 μl of a 1:1 mixture of 1N NaOH: 1M HEPES returning the culture supernatant to a pH 7.3. The transiently acidified conditioned media was then used in the Mv1Lu assay; diluted 1:4 in EMEM+0.5% FBS. To the wells of a Falcon 96-well flat-bottom plate, 100 μl of diluted transiently acidified samples were added with 100 μl of 1×10^5 Mv1Lu cells (CCL-64; ATCC, Rockville, Md.). The plate was incubated for 20 hours at 37° C., 5% CO2 followed by the addition of 20 μl of 50 μCi/ml 3H-thymidine and the plate was incubated for an additional 4 hours. Supernatant was discarded and 50 μl of 10× Trypsin-EDTA (Biowhittaker, Walkersville, Md.) solution was added to each well and the plate was incubated for 15 minute at 37° C. The cells were collected onto filter paper using a Tomtec Plate Harvester 96 and counts per minute (CPM) of incorporation 3H-thymidine was measured using a Wallac 1205 Betaplate Liquid Scintillation Counter. Cultures of known amounts of purified activated TGF-β1, 20 ng/ml to 0.2 pg/ml (R&:D Systems), were prepared in the same plate for calculating a standard curve to quantify the concentration of total TGF-β in the samples.
Primed T Cell In Vitro Assays. From draining lymph nodes of BALB/c mice immunized 7 days previously with MT-Ag, primed T cells were isolated using CD3 enrichment columns (R&D Systems). T-cells (4×10^5 cells) suspended in serum-free media were added to the wells of a 96 well, round bottom plate (Corning). To the wells were added α-MSH (30 pg/ml) and anti-TCR antibody (2C11; 1 μg/ml) diluted in serum-free culture media. Various concentrations of TGF-β1 or TGF-β2 in media were added. In a second set of experiments TGF-β1 or TGF-β2 at a fixed concentration of 5 ng/ml were added to the wells at various times (0, 2, 4 and 6 hours) after addition of anti-TCR antibody. The cultures were incubated for 24 hours and 0.5 μCi of 3H-thymidine (NEM, Boston, Mass.) was added to the wells and the cultures were incubated for an additional 24 hours. The cells were collected and incorporated radiolabeled was measured by scintillation counting. Production of TGF-β by the treated primed T cells was done by centrifuging the culture plates 24 hours after the addition of anti-TCR antibody, removing the supernatant, washing the cultures once and adding fresh media. […]
FIG. 4 is a bar graph of TGF-β production by primed T cells TCR-stimulated in the presence of α-MSH. […] Significance (p=0.05) was determined by Student's t-test between TGF-β concentrations in cultures of activated α-MSH treated T cells and T cells activated in the absence of α-MSH. […]

primed T cells [2] = assay: proliferation of TCR-stimulated primed T cells (3H-thymidine incorporation); type: cell-based, mouse (BALB/c); settings: for T cell proliferation, increasing concentrations of TGF-β: 0.005-5.0 ng/ml, regardless of the presence of α-MSH 30 pg/ml; for T cell proliferation, TGF-β added from the start of TCR-stimulation through 6 hours later: no α-MSH
TGF-β = assay: in vitro regulatory T cell assay with soluble TGF-β receptor type II added; type: cell-based, mouse; settings: increasing amounts added to cocultures, 48 hours
Description: as §1
α-MSH induced regulatory T cells that through TGF-β suppress activation of other T cells. […] The regulatory T cells were washed and added to cultures of freshly TCR-stimulated primed T cells as described for FIG. 15. […]

| Molecule | induction of regulatory T cell activity (suppression of IFN-γ of other Th1 cells), factor individually (primed Th1 cells) | induction of regulatory T cell activity, TGF-β added 4 hours after TCR-stimulation in the presence of α-MSH (primed Th1 cells) | α-MSH-induced TGF-β production after addition of TGF-β at various times after TCR-stimulation (primed T cells [1]) | T cell proliferation, increasing concentrations of TGF-β (primed T cells [2]) | T cell proliferation, low concentrations of TGF-β (primed T cells [2]; TCR-stimulated primed T cells, FIG. 9) | T cell proliferation, TGF-β added from the start of TCR-stimulation through 6 hours later (primed T cells [2]; TGF-β 5.0 ng/ml) | T cell proliferation, TGF-β added at or later than 4 hours after TCR-stimulation (primed T cells [2]; TGF-β 5.0 ng/ml, α-MSH 30 pg/ml present) | effect on suppression of IFN-γ production mediated by α-MSH-treated T cells (TGF-β) |
| --- | --- | --- | --- | --- | --- | --- | --- | --- |
| TGF-β1: purified activated TGF-β1 (R&D Systems), transforming growth factor | could not alone or with α-MSH induce regulatory T cells | antagonized α-MSH-mediated induction of regulatory T cells | did not change | suppressed | either no effect or enhanced | suppressed |  |  |
| TGF-β2: recombinant / purified human transforming growth factor-β2 (R&D Systems) (protein, UniProt P61812 303-414, looked up, Transforming growth factor beta-2) Transforming growth factor …: ALDAAYCFRNVQDNCCLRPLYIDFKRDLGWKWIHEPKGYNANFCAGACPYLWSSDTQHSRVLSLYNTINPEASASPCCVSQDLEPLTILYYIGKTPKIEQLSNMIVKSCKCS | induced regulatory T cell activity | enhanced the regulatory activity | did enhance | suppressed |  | suppressed | recovered |  |
| sTGF-βRII: soluble TGF-β receptor type-two (R&D Systems), used to neutralize TGF-β activity (protein, UniProt P37173 23-166, looked up, extracellular domain) extracellular domain: TIPPHVQKSVNNDMIVTDNNGAVKFPQLCKFCDVRFSTCDNQKSCMSNCSITSICEKPQEVCVAVWRKNDENITLETVCHDPKLPYHDFILEDAASPKCIMKEKKKPGETFFMCSCSSDECNDNIIFSEEYNTSNPDLLLVIFQ |  |  |  |  |  |  |  | neutralized |
